Assay results taken from patent publication US6380373B1, “Steroid receptor coactivator compositions and methods of use” (Baylor College of Medicine, priority 1995, dated 2002).

Experiments:
hPR [1] = target: T1, hPR (Homo sapiens, UniProt P06401); experiment: Transient transfection CAT reporter assay, hPRB with PRE2-TATA-CAT in HeLa cells; type: cell-based; conditions: HeLa cells, PRE2-TATA-CAT, 2×10^−8 M R5020, without SRC-1
T1 construct: expressed in transfected cells; host or cells: HeLa
T1 sequence (P06401 1-933): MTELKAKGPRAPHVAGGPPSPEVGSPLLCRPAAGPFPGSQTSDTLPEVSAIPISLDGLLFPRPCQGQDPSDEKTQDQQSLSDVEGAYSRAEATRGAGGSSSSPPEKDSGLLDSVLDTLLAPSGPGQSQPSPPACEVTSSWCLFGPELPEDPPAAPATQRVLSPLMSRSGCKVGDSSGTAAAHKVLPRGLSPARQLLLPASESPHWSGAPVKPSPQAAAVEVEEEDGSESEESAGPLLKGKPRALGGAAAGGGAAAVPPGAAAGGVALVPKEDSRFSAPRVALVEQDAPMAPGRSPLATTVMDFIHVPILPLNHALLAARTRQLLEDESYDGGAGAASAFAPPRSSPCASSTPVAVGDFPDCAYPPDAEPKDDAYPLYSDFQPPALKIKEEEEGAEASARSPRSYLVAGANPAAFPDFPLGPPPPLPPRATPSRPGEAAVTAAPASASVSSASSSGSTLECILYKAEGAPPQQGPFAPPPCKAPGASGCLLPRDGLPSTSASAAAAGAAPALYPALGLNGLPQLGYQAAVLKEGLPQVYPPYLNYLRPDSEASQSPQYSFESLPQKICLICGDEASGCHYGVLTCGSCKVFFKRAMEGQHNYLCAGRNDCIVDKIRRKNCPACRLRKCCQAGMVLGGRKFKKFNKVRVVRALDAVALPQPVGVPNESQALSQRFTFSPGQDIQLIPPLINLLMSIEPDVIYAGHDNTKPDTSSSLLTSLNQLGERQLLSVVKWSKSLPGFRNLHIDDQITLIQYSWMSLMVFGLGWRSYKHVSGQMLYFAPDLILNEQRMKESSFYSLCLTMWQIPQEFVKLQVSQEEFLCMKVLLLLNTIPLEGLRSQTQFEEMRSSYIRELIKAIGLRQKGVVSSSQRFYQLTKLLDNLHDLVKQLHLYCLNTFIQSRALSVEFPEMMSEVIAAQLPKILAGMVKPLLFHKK
Procedure: (§1) Lipofectin (GibcoBRL) was selected for transfection of Hela cells.
To further investigate the role of SRC-1 in receptor transactivation of target gene expression, transient transfection assays were carried out in mammalian cell lines. HeLa cells were cotransfected with mammalian expression vectors for full-length SRC-1 and hPRB together with a plasmid containing two copies of the progesterone-responsive DNA element (PRE) inserted in front of the TATA box of the E1b adenovirus, linked to the chloramphenicol acetyl transferase (CAT) reporter gene, PRE2-TATA-CAT.
Cells were harvested 42 h after transfection and the chloramphenicol acetyl transferase (CAT) activity determined using 8 μg of protein extract.

hPR [2] = target: T1, hPR; experiment: Dominant-negative CAT assay PR/PRE2-tk-CAT with SRC-1(0.8); type: cell-based; conditions: Lmtk- cells
Procedure: as §1
(§2) To further elucidate the mechanism of SRC-1 action, the effect of the N-terminal deletion mutant of SRC-1, SRC-1(0.8), on receptor transactivation was examined. The amino acid sequence from 865-1061, which contains the region that binds to the receptor, was cloned in frame to a mammalian expression vector that provided an exogenous AUG codon.
(§3) Lmtk^− cells were transfected with 5 μg of steroid receptors cDNAs expression vectors and their reporters, PR/PRE2-tk-CAT and TR§/DR4-tk-CAT, along with 10 μg of SRC-1(0.8) or empty expression vector and then treated with hormones (2×10^−8 M). The reporter CAT activity was determined using 60 μg of protein extract.

GST-TR = target: T2, GST-TR (Homo sapiens, UniProt P10828); experiment: In vitro interaction with baculovirus expressed GST-TR; type: binding
T2 construct: GST; made in house
T2 sequence (P10828 1-461): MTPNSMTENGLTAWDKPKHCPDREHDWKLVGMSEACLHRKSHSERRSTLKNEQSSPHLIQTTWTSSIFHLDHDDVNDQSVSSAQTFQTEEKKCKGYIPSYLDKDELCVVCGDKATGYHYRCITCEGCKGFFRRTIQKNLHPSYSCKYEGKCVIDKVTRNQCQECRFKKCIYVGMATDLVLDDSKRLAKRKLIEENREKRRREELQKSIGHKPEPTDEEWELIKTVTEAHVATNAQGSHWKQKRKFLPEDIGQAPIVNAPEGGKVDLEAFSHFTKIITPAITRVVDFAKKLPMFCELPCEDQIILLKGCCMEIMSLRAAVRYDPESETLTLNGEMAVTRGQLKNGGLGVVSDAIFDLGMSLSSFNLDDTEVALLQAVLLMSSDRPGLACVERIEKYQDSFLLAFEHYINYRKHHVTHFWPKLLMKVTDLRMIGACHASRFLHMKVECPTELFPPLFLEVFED
Source text: (§4) Thus, we investigated the effect of SRC-1 expression on the transcriptional activity of other intracellular receptors.

TR = target: T3, TR (Homo sapiens, UniProt P10828); experiment: Dominant-negative CAT assay TR/DR4-tk-CAT with SRC-1(0.8) in Lmtk- cells; type: cell-based; set-up: expressed in transfected cells; host or cells: Lmtk- (mouse fibroblast) cells; conditions: 10 μg SRC-1(0.8), hormone 2×10^−8 M
T3 sequence (P10828 1-461): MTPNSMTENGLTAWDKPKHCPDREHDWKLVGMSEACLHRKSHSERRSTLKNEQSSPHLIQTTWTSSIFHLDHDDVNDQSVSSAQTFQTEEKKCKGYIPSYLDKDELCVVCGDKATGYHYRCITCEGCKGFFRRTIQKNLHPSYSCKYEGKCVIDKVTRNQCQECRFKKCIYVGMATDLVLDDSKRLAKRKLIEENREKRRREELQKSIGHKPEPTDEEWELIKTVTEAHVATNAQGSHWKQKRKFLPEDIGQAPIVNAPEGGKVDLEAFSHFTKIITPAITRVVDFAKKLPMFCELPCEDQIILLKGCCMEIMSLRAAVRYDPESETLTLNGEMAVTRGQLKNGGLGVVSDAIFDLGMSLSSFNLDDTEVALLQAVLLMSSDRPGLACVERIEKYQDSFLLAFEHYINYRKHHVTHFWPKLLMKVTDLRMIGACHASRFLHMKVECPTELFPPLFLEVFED
Procedure: as §1, §2, §3

GST-ER = target: T4, GST-ER (Homo sapiens, UniProt P03372); experiment: In vitro interaction with baculovirus expressed GST-ER; type: binding
T4 construct: GST; made in house
T4 sequence (P03372 1-595): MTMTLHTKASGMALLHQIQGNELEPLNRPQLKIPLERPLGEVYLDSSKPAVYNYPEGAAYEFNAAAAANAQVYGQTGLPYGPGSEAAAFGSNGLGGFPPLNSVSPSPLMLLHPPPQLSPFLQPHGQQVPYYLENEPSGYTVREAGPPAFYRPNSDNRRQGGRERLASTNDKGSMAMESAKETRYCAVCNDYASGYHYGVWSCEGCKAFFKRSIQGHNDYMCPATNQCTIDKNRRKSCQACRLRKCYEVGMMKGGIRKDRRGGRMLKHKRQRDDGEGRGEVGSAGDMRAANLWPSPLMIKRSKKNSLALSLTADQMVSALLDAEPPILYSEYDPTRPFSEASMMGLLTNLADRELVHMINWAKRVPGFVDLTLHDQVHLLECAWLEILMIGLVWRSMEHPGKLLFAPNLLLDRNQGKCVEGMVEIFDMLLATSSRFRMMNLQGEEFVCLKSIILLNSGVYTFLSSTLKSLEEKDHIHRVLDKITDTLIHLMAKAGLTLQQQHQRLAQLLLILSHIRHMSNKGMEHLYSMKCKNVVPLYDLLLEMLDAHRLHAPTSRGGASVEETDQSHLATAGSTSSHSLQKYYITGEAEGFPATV
Source text: as §4

induction of hPR activity (CAT reporter) (hPR [1]) | effect on hormone induced transcriptional activity of hPR (hPR [2]; 10 μg SRC-1(0.8), hormone 2×10^−8 M) | effect on the hormone-free receptor (hPR [2]; no hormone) | interaction with GST-TR in vitro (GST-TR) | effect on ligand-induced transcriptional activity of TR (TR) | interaction with GST-ER in vitro (GST-ER) | Molecule
~5 fold | – | – | – | – | – | CCC(=O)[C@@]1(C)CC[C@H]2[C@@H]3CCC4=CC(=O)CCC4=C3CC[C@@]21C [R5020, reference compound]
– | efficiently reduced | No major effect | able to interact | inhibits | able to interact | SRC-1(0.8): N-terminal truncated form of SRC-1, amino acids 865-1061, containing the receptor-binding region; dominant-negative repressor (protein, UniProt Q15788 865-1061, looked up, fragment) LNRLPELELEAIDNQFGQPGTGDQIPWTNNTVTAINQSKSEDQCISSQLDELLCPPTTVEGRNDEKALLEQLVSFLSGKDETELAELDRALGIDKLVQGGGLDVLSERFPPQQATPPLIMEERPNLYSQPYSSPSPTANLPSPFQGMVRQKPSLGTMPVQVTPPRGAFSPGMGMQPRQTLNRPPAAPNQLRLQLQQR
